Results taken from article PMC10277282.

Target: MHC II (mouse (endogenous in BMDM)) (UniProt P14434)
UniProt P14434, sequence (P14434 24-256, chain 1 of 2): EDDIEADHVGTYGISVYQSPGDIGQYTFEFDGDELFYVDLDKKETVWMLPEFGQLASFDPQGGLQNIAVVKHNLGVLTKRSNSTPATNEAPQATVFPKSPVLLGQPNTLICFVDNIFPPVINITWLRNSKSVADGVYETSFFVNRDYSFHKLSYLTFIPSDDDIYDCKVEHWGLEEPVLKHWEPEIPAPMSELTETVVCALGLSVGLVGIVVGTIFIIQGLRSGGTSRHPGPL
UniProt P14434, sequence (P14483 28-265, chain 2 of 2, further chain): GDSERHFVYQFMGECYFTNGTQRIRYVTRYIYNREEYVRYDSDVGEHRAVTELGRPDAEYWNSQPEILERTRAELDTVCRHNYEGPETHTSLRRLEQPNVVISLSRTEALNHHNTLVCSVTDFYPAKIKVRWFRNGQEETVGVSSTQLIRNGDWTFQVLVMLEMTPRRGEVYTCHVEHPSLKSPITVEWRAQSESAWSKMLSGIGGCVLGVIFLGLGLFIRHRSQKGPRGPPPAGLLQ

Substance: soluble CD4 (ectodomain of CD4, D1-D4 domains) (from UniProt P06332 27-394) (domain or fragment)
- TLR4 hyperinflammation in vivo (LPS sepsis in mice); concentration of sCD4 needed for 50% inhibition: 125 nM
- TNF/IL-6 response of macrophages to LPS in vitro; concentration of sCD4 needed for 50% inhibition of TLR4 hyperinflammation: 25 nM
